Key:
[1] = system: GST-BAD S155A
[2] = system: T1, GST-BAD (GST-tagged shorter murine BAD)
T1 sequence: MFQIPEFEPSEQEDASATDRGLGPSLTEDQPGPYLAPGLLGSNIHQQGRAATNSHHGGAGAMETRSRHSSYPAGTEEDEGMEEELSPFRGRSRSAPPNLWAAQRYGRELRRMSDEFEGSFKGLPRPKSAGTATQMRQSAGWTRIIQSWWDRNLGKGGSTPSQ

[3] = system: GST-BAD S112A/S136A/S155A
[4] = system: T2, Full-length BAD (wildtype), in vitro translated, 35S-methionine labelled, buffer control
T2 sequence: T1 sequence

[5] = system: GST-BAD S112A/S136A
[6] = system: GST-BAD S136A
[7] = system: GST-BAD S112A [GST: P08515]

PKA (cAMP-dependent protein kinase), catalytic subunit from bovine heart
in vitro phosphorylation (32P incorporation, autoradiography) [1]: dramatically reduced the phosphorylation of the single mutant GST-BAD S155A
in vitro phosphorylation (32P incorporation, autoradiography) [2]: the shorter murine BAD, and BAD mutants containing mutations at the serine at a position corresponding to Ser112 and/or Ser136, were good in vitro substrates for PKA
in vitro phosphorylation (32P incorporation, autoradiography) [3]: abolished phosphorylation of the triple mutant GST-BAD S112A/S135A/S155A
gel-mobility shift after incubation with PKA and ATP [4]: phosphorylation by PKA induced a gel-mobility shift of wild-type BAD
in vitro phosphorylation (32P incorporation, autoradiography) [5]: the shorter murine BAD, and BAD mutants containing mutations at the serine at a position corresponding to Ser112 and/or Ser136, were good in vitro substrates for PKA
in vitro phosphorylation (32P incorporation, autoradiography) [6]: the shorter murine BAD, and BAD mutants containing mutations at the serine at a position corresponding to Ser112 and/or Ser136, were good in vitro substrates for PKA
in vitro phosphorylation (32P incorporation, autoradiography) [7]: the shorter murine BAD, and BAD mutants containing mutations at the serine at a position corresponding to Ser112 and/or Ser136, were good in vitro substrates for PKA
